Laboratory results taken from PMC8100066.

Legend:
[1] = molecular target: mouse CSL (amino acid residues 53-474), conserved and structurally ordered core domain (mouse) (UniProt P31266); experiment: ITC; CSL in the cell at 10 μM, RAM peptides in the syringe at 100 μM; 20 °C; 50 mM sodium phosphate, 150 mM sodium chloride; triplicate, 20 injections of 14 μl
[2] = molecular target: mouse CSL (RBPJ), core domain 53-474 53-474 (UniProt P31266); experiment: isothermal titration calorimetry; conditions: reference: nonphosphorylated N3RAM peptide; sites S1672

Chain of mouse CSL (amino acid residues 53-474), conserved and structurally ordered core domain (mouse) (P31266 53-474): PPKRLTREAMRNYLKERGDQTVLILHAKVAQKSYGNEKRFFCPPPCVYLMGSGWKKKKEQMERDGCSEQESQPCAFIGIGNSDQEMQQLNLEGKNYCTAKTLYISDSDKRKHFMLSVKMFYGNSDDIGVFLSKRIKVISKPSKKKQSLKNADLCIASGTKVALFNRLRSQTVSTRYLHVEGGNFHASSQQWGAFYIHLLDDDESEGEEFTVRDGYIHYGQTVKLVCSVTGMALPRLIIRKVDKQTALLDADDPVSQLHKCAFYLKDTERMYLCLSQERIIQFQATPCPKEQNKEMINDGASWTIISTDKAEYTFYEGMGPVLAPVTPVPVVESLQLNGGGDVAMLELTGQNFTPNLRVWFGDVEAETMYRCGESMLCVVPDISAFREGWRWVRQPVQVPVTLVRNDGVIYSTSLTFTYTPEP

human NOTCH3 RAM peptide (residues 1665-1682), nonphosphorylated
Kd [1]: 0.187 µM

human NOTCH3 (N3RAM peptide) RAM domain, 1665-1682 (from UniProt Q9UM47) N3RAMpS1672 peptide
KD [2]: lost; reference 0.187
